Test results taken from the supplement of paper PMC10065799, “High-throughput profiling of sequence recognition by tyrosine kinases and SH2 domains using bacterial peptide display” (eLife, 2023).

Columns and labels:
Grb2 SH2 = Grb2 SH2 (UniProt P62993); experiment: SH2 binding enrichment of the phosphorylated peptide, bacterial display (enrichment ratio); higher = better substrate or ligand; peptides without Tyr show the background
SHP2-C SH2 = experiment: as above
c-Src SH2 = experiment: as above
Fer (mouse) = experiment: phosphorylation enrichment, bacterial display (enrichment ratio); higher = better substrate or ligand; peptides without Tyr show the background
Fes = Fes (UniProt P07332); experiment: as above
Hck = Hck (UniProt P08631); experiment: as above
EPHB2 = EPHB2 (UniProt P29323); experiment: as above
MERTK = MERTK (UniProt Q12866); experiment: as above
EPHB1 = EPHB1 (UniProt P54762); experiment: as above
FGFR1 = FGFR1 (UniProt P11362); experiment: as above
Jak2 = Jak2 (UniProt O60674); experiment: as above
FGFR3 = FGFR3 (UniProt P22607); experiment: as above
Fyn = Fyn (UniProt P06241); experiment: as above
c-Abl (mouse) = experiment: as above
c-Src = experiment: as above
AncSZ = experiment: as above
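Throughout, for SH2 binding enrichment of the phosphorylated peptide, bacterial display: peptide library displayed on the E. coli surface as eCPX fusions, selected cells deep-sequenced, score is each peptide's frequency after selection divided by its frequency in the input.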
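Throughout, for phosphorylation enrichment, bacterial display: 11-residue human phosphosite peptides and single-mutation variants displayed on the E. coli surface, counted by deep sequencing, each peptide's frequency after selection divided by its frequency in the unselected input library; frequency after pTyr selection over input frequency; kinase dosed for 20-30% of maximal phosphorylation in three min.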

Hck, sequence (P08631 whole entry, looked up): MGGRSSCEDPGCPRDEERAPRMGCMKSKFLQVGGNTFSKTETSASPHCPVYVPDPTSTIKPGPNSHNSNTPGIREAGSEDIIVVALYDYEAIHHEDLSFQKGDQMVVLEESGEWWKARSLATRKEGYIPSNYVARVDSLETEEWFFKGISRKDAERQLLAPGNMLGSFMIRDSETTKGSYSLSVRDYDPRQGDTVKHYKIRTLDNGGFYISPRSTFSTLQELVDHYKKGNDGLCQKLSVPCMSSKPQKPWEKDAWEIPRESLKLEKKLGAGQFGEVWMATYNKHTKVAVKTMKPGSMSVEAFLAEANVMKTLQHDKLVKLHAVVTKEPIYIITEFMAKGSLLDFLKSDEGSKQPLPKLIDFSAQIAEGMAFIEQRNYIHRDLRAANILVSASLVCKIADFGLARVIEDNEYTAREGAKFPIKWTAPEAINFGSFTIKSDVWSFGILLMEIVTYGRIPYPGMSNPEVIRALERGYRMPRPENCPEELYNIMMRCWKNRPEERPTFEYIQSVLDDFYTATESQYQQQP
Fyn, sequence (P06241 whole entry, looked up): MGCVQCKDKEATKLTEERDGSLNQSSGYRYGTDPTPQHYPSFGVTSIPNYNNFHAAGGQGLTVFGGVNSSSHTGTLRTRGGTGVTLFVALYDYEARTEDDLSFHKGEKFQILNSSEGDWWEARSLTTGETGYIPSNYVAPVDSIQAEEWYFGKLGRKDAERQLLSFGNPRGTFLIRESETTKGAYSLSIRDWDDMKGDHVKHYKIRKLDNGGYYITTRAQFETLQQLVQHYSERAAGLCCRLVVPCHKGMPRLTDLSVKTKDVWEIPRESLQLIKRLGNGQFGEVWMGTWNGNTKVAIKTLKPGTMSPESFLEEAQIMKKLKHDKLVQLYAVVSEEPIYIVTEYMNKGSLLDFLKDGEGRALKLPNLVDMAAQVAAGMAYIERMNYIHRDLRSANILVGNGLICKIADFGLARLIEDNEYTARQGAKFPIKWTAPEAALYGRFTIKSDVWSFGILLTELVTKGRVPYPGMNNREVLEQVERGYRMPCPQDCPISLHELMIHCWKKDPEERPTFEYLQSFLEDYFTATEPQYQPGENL
EPHB2, sequence (P29323 whole entry, looked up): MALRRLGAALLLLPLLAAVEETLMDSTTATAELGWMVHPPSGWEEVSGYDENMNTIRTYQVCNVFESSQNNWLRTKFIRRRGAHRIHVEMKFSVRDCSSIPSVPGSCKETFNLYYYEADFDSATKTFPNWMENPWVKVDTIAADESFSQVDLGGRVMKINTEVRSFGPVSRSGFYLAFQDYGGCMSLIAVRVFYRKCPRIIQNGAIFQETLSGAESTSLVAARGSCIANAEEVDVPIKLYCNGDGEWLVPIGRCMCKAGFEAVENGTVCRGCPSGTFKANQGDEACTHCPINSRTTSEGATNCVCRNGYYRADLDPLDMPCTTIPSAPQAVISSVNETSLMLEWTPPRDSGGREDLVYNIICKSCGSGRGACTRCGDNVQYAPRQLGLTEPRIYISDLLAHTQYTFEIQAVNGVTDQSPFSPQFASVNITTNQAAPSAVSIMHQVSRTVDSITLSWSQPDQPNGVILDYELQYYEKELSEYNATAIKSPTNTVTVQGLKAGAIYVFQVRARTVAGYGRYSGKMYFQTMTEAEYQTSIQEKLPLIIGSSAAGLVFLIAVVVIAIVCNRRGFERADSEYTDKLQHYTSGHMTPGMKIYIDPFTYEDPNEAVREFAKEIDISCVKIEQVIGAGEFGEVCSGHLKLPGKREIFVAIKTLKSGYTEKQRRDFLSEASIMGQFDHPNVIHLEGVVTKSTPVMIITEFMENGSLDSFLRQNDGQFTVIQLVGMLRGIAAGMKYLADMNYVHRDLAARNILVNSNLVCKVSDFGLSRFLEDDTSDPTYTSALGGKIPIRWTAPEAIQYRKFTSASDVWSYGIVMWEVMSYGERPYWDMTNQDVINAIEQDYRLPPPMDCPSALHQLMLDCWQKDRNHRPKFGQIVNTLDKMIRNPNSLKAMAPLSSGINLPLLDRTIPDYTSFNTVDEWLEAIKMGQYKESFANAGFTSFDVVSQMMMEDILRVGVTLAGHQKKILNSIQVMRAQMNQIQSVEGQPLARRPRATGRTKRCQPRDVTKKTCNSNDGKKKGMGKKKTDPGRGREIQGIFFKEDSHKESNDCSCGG
FGFR3, sequence (P22607 whole entry, looked up): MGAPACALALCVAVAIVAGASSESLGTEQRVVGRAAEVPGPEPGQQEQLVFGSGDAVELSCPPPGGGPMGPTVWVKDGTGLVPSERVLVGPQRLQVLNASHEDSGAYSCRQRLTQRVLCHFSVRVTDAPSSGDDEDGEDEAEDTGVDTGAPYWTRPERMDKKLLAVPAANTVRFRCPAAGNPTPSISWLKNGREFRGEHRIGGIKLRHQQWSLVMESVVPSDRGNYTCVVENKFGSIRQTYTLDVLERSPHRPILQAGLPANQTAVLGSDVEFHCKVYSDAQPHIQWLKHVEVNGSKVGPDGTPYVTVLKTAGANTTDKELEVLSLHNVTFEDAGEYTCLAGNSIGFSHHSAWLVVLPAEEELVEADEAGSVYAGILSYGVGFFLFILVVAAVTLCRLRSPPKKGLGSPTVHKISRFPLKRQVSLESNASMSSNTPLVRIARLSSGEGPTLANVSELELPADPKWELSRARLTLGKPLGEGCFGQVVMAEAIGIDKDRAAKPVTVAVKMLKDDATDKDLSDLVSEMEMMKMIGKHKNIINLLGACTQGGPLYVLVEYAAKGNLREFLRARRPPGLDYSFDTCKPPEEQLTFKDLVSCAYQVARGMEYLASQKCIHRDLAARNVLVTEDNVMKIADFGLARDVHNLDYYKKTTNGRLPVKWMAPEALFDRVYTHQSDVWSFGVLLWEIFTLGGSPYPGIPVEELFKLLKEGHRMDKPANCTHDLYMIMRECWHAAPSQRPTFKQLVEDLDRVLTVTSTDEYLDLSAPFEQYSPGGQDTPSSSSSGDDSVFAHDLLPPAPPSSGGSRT
FGFR1, sequence (P11362 whole entry, looked up): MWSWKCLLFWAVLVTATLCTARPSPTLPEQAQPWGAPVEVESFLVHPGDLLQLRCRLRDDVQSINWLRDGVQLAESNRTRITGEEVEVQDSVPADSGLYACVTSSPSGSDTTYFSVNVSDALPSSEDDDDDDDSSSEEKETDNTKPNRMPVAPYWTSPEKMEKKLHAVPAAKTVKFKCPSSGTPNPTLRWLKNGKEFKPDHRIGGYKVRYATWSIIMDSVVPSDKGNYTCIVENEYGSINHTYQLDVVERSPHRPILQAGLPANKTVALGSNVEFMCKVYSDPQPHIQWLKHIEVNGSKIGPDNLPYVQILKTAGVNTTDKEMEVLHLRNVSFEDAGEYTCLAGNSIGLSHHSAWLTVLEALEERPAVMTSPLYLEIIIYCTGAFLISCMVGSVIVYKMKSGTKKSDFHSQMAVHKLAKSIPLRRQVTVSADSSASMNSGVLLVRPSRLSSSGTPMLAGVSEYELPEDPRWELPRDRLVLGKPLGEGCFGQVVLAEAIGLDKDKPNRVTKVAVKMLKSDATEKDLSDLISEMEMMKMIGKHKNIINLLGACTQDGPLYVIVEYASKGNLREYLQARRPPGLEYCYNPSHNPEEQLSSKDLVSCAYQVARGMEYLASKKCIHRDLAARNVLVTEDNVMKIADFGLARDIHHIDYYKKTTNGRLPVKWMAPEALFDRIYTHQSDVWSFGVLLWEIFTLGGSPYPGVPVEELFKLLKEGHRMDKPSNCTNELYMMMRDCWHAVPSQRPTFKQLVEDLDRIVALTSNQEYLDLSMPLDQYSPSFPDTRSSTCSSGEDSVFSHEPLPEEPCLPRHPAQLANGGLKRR
Fes, sequence (P07332 whole entry, looked up): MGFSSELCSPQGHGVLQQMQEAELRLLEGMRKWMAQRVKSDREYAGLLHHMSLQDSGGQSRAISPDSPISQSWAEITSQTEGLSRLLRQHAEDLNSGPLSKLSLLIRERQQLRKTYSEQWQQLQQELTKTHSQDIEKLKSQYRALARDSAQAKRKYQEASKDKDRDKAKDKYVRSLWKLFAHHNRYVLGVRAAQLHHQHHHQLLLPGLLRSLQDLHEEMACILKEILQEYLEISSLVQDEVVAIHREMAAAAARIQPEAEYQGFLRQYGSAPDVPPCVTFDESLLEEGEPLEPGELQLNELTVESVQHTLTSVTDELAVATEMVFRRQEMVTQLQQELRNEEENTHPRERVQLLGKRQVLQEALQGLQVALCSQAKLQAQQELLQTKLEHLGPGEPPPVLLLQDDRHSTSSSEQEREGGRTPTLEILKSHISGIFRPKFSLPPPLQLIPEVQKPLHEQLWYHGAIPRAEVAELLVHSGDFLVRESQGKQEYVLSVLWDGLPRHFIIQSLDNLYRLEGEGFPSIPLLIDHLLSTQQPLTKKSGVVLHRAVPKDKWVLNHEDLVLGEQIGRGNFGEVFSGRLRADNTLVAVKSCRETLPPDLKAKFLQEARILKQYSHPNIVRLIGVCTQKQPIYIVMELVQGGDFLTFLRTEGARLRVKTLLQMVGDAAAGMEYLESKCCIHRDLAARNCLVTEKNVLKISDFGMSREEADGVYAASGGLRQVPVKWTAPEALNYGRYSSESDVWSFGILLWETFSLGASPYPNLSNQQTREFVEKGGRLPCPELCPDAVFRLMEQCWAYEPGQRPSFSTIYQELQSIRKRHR
Grb2 SH2, sequence (P62993 whole entry, looked up): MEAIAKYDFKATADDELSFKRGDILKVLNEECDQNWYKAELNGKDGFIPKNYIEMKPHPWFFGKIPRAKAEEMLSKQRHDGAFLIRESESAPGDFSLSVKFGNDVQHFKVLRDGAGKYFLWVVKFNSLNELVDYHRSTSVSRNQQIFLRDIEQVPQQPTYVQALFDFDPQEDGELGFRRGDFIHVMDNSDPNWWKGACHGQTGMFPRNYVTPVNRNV

Row | Sequence | SH2 binding enrichment (Grb2 SH2) | SH2 binding enrichment (SHP2-C SH2) | SH2 binding enrichment (c-Src SH2) | phosphorylation enrichment (Fer (mouse)) | phosphorylation enrichment (Fes) | phosphorylation enrichment (Hck) | phosphorylation enrichment (EPHB2) | phosphorylation enrichment (MERTK) | phosphorylation enrichment (EPHB1) | phosphorylation enrichment (FGFR1) | phosphorylation enrichment (Jak2) | phosphorylation enrichment (FGFR3) | phosphorylation enrichment (Fyn) | phosphorylation enrichment (c-Abl (mouse)) | phosphorylation enrichment (c-Src) | phosphorylation enrichment (AncSZ)
1 | RGDCTYAPLLG [AR_Y269_M268T] | 0.88 | 0.594 | 0.896 | 1.33 | 1.46 | 9.33 | 9.28 | 7.45 | 8.38 | 1.42 | 1.18 | 1.26 | 8.94 | 2.55 | 6.35 | 1.21
2 | RGDSAYHSQRH [ERBB3_Y1132] | 1.11 | 0.65 | 0.819 | 0.569 | 0.731 | 0.305 | 0.469 | 0.357 | 0.534 | 0.401 | 0.288 | 0.427 | 0.455 | 0.453 | 0.462 | 0.51
3 | RGESFYQDRMN [RARS_Y338] | 0.794 | 0.725 | 0.461 | 0.603 | 0.996 | 0.631 | 0.392 | 0.469 | 0.463 | 0.534 | 0.899 | 0.512 | 0.411 | 0.726 | 0.541 | 0.746
4 | RGYRQDAYDGK [HLA-A_Y140] | 1.3 | 0.458 | 0.517 | 0.764 | 0.677 | 0.591 | 0.546 | 0.436 | 0.519 | 0.641 | 0.859 | 0.509 | 0.671 | 0.859 | 0.526 | 0.773
5 | RISGVYKLPPD [ANGPTL7_Y145] | 1.02 | 0.857 | 0.525 | 0.5 | 0.852 | 0.572 | 0.586 | 0.719 | 0.511 | 0.623 | 0.785 | 0.801 | 1 | 0.838 | 0.827 | 0.9
6 | RISRKYKKVRF [F8_Y442_G439S] | 0.461 | 0.636 | 0.391 | 0.759 | 0.883 | 0.571 | 1.07 | 0.805 | 0.891 | 0.986 | 0.64 | 0.749 | 0.721 | 0.711 | 0.749 | 0.879
7 | RIVRKYKKVRF [F8_Y442_G439V] | 0.652 | 0.503 | 0.477 | 0.93 | 0.78 | 0.547 | 0.84 | 0.824 | 0.699 | 0.647 | 0.65 | 0.765 | 0.823 | 0.687 | 0.87 | 0.964
8 | RKGIRYLTSGL [PIGA_Y82] | 1.05 | 0.709 | 0.399 | 0.368 | 0.668 | 0.645 | 0.437 | 0.57 | 0.533 | 0.47 | 0.657 | 0.688 | 0.434 | 0.438 | 0.648 | 0.698
9 | RLCQDYDIIGP [ANK1_Y1073_T1075I] | 0.703 | 0.781 | 1.29 | 1.81 | 1.26 | 2.46 | 12.7 | 1.26 | 10 | 2.35 | 1.17 | 1.84 | 1.6 | 0.663 | 1.47 | 2.56
10 | RLDRSYSFSFS [PEAR1_Y890_YF] | 0.75 | 0.677 | 0.544 | 0.809 | 0.984 | 0.791 | 0.48 | 0.62 | 0.783 | 0.738 | 0.816 | 0.607 | 0.702 | 0.593 | 0.575 | 1.06
11 | RLEGVYRNNID [PTEN_Y46] | 0.948 | 0.588 | 0.398 | 0.849 | 0.889 | 0.389 | 0.578 | 0.291 | 0.478 | 0.293 | 0.751 | 0.703 | 0.675 | 1.35 | 0.561 | 0.553
12 | RLLVVFPWTQR [HBB_Y36_Y36F] | 1.94 | 1.95 | 1.23 | 0.608 | 1.73 | 0.829 | 0.766 | 0.784 | 0.574 | 0.67 | 1.59 | 1.08 | 0.545 | 1.11 | 0.584 | 2.13
13 | RLLVVYPWTQR [HBB_Y36] | 1.99 | 2.05 | 1.41 | 0.5 | 1.06 | 0.497 | 0.632 | 0.523 | 0.553 | 0.591 | 0.967 | 0.722 | 0.574 | 0.77 | 0.53 | 1.09
14 | RLNWIYFKDQT [RS1_Y165_YF] | 1.01 | 1.01 | 0.842 | 0.774 | 2.3 | 1.02 | 0.918 | 0.49 | 1.08 | 1.17 | 2.15 | 1.35 | 0.757 | 1.35 | 0.855 | 2.98
15 | RPASQYPHQVP [ADAM12_Y895_P893S] | 0.883 | 0.791 | 0.53 | 0.464 | 0.548 | 0.553 | 0.689 | 0.419 | 0.205 | 0.476 | 0.56 | 0.403 | 0.61 | 0.374 | 0.459 | 0.533
16 | RPSRWYQFRVA [ANOS1_Y259] | 0.771 | 0.568 | 0.541 | 1.03 | 1.55 | 0.642 | 0.717 | 0.699 | 0.834 | 0.748 | 0.894 | 0.887 | 1.01 | 0.955 | 0.756 | 1.22
17 | RPYRPYIIRGM [LRP5_Y1531] | 0.759 | 0.557 | 0.574 | 0.536 | 1.4 | 1.04 | 0.842 | 0.852 | 0.531 | 0.748 | 0.826 | 0.845 | 0.987 | 0.587 | 0.917 | 0.949

Row | Sequence | SH2 binding enrichment (Grb2 SH2) | SH2 binding enrichment (SHP2-C SH2) | SH2 binding enrichment (c-Src SH2) | phosphorylation enrichment (Fer (mouse)) | phosphorylation enrichment (Fes) | phosphorylation enrichment (Hck) | phosphorylation enrichment (EPHB2) | phosphorylation enrichment (MERTK) | phosphorylation enrichment (EPHB1) | phosphorylation enrichment (FGFR1) | phosphorylation enrichment (Jak2) | phosphorylation enrichment (FGFR3) | phosphorylation enrichment (Fyn) | phosphorylation enrichment (c-Abl (mouse)) | phosphorylation enrichment (c-Src) | phosphorylation enrichment (AncSZ)
18 | RREGVYRNNID [PTEN_Y46_L42R] | 0.621 | 0.451 | 0.436 | 0.469 | 0.925 | 0.461 | 0.517 | 0.752 | 0.324 | 0.392 | 0.778 | 0.516 | 0.664 | 0.783 | 0.8 | 0.55
19 | RRESQYQENRG [LRCH3_Y354] | 0.982 | 0.624 | 0.49 | 0.563 | 0.571 | 0.503 | 0.494 | 0.472 | 0.431 | 0.479 | 0.582 | 0.663 | 0.637 | 0.73 | 0.475 | 0.835
20 | RRFVFYFSFLL [PTEN_Y177_YF] | 0.752 | 0.688 | 0.426 | 0.829 | 0.744 | 0.899 | 0.655 | 0.593 | 0.654 | 0.938 | 0.622 | 0.608 | 0.741 | 0.502 | 0.611 | 1.06
21 | RRIHSYRSHLW [VHL_Y112_G114S] | 0.574 | 0.822 | 0.57 | 0.507 | 1.17 | 0.601 | 2.19 | 0.718 | 0.81 | 1.25 | 0.487 | 0.778 | 0.833 | 0.395 | 0.439 | 0.576
22 | RRNVYYYSYLL [PTEN_Y177_Y174N] | 0.565 | 0.641 | 0.599 | 0.556 | 0.796 | 1.13 | 0.707 | 8.2 | 1.74 | 6.81 | 2.42 | 4.21 | 1.14 | 0.616 | 1.79 | 1.16
23 | RSFPSYFTSHV [NEFL_Y442_YF] | 0.888 | 1.08 | 0.73 | 0.525 | 0.887 | 0.477 | 0.761 | 0.629 | 0.672 | 0.899 | 1.8 | 0.634 | 0.65 | 0.772 | 0.481 | 0.869
24 | RSFPSYYTSHV [NEFL_Y442] | 1.17 | 1.11 | 1.28 | 0.65 | 1.05 | 1.1 | 1.34 | 7.71 | 2.37 | 2.19 | 3.72 | 1.28 | 0.775 | 1.02 | 1.12 | 1.05
25 | RSGIYYKPESL [L2HGDH_Y103_H98R] | 0.935 | 0.745 | 0.854 | 0.699 | 0.915 | 4.86 | 3.34 | 17 | 2.37 | 5.07 | 2.29 | 3.3 | 2.43 | 45.6 | 2.6 | 1.17
26 | RSSGSYGGGGQ [HNRNPA1_Y341_P340S] | 0.777 | 0.68 | 0.457 | 0.438 | 0.532 | 0.423 | 0.606 | 0.415 | 1.5 | 0.536 | 0.354 | 0.485 | 0.539 | 0.527 | 0.366 | 0.492
27 | RSSPVYVGRVV [TGM2_Y219] | 1.13 | 1.39 | 0.758 | 0.945 | 1.03 | 2.22 | 0.796 | 0.818 | 0.59 | 0.77 | 1.03 | 0.82 | 1.42 | 1.71 | 1.42 | 1.18
28 | RTCSSYTIEKI [PARP15_Y520_A521T] | 0.813 | 0.739 | 0.59 | 0.502 | 1.51 | 0.726 | 0.474 | 0.533 | 0.608 | 0.475 | 1.13 | 1.18 | 0.638 | 0.84 | 0.544 | 0.937
29 | RVAFQYGVTDL [MYBPC3_Y340_I336V] | 0.697 | 0.432 | 0.545 | 0.576 | 1.27 | 0.599 | 0.827 | 0.471 | 0.461 | 0.456 | 1.08 | 0.842 | 0.49 | 0.764 | 0.493 | 1.16
30 | RVEDAYILTCN [CCT6A_Y229] | 0.663 | 0.54 | 0.671 | 4.93 | 0.928 | 0.692 | 0.487 | 0.498 | 0.515 | 0.721 | 0.772 | 0.689 | 0.839 | 0.565 | 1 | 1.07
31 | RVKPIYFHTQG [AR_Y916_K911R] | 2.11 | 1.67 | 1.53 | 0.764 | 1.69 | 0.622 | 0.804 | 0.763 | 0.644 | 0.706 | 1.6 | 0.765 | 0.642 | 1.04 | 0.952 | 1.16
32 | RVKTPYSLKRW [BMPR2_Y979] | 1.95 | 3.37 | 2.06 | 0.756 | 1.17 | 0.745 | 0.516 | 0.572 | 0.608 | 0.666 | 1.24 | 0.931 | 0.582 | 0.944 | 0.616 | 1.19
33 | RVQKRYIFDNV [RCN1_Y115] | 0.468 | 0.503 | 0.273 | 0.381 | 0.442 | 0.328 | 0.472 | 0.422 | 0.291 | 0.484 | 0.455 | 0.619 | 0.319 | 0.252 | 0.394 | 0.531
